Assay results from article PMC10231232, “Expanding the Physiological Role of Aryl-Alcohol Flavooxidases as Quinone Reductases” (Applied and Environmental Microbiology, 2023).
Like-named read-outs stand apart in the source and are kept apart here.

Key:
PoAAO [1] = tested on: T1, PoAAO; details: read-out: Km(acceptor); electron acceptor; p-methoxybenzyl alcohol as co-substrate (varied), ping-pong fit, anaerobic, 50 mM NaPi pH 6.0, 25°C
T1 construct: gene AAO

PeAAO = biological target: T2, PeAAO (Pleurotus eryngii, UniProt O94219); assay: bi-substrate steady-state kinetics, anaerobic, BQ reduction at […] nm; type: biochemical; details: electron acceptor, p-methoxybenzyl alcohol as co-substrate (varied), ping-pong fit, 50 mM NaPi pH 6.0, 25°C
T2 construct: gene aao; 61,847 Da
T2 sequence (O94219 28-593): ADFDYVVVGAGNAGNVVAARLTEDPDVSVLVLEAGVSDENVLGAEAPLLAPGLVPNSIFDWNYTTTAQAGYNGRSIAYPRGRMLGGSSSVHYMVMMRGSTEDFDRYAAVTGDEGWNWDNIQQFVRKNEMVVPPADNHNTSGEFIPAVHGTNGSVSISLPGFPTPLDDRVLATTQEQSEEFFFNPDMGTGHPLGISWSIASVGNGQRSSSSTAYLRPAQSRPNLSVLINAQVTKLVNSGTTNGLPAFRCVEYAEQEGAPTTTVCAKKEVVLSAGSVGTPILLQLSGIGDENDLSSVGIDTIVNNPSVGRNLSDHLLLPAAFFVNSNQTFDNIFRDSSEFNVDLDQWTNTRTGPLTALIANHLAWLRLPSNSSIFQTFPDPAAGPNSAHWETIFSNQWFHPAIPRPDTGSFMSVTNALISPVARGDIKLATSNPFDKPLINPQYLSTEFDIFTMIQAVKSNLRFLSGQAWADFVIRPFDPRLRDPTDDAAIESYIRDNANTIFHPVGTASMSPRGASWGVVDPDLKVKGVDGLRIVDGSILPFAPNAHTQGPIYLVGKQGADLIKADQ

BaAAO = biological target: T3, BaAAO (Bjerkandera adusta, UniProt A0ABF7PQ87); assay: as above; type: biochemical; details: electron acceptor, p-methoxybenzyl alcohol as co-substrate (varied), ping-pong fit, 50 mM NaPi pH 6.0, 25°C
T3 construct: 62,610 Da; one cysteine
T3 sequence (A0ABF7PQ87 1-580): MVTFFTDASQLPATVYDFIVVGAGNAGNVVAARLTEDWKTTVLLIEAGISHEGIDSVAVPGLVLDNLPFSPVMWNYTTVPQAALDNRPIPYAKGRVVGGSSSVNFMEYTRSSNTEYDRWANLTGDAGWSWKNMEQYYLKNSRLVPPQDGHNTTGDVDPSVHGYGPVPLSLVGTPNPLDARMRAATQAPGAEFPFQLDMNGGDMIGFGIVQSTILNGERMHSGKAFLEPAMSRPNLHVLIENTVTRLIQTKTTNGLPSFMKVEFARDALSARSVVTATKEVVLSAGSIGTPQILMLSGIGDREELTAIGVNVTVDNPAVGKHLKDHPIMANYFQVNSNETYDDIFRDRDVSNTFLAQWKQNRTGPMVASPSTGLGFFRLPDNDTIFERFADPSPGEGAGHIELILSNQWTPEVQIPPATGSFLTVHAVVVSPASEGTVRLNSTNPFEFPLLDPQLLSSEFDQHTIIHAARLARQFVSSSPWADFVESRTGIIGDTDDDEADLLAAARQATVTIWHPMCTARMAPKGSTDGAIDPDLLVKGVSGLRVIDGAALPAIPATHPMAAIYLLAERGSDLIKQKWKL

PoAAO [2] = tested on: T4, PoAAO; assay: steady-state kinetics, absorbance of aldehyde formed; type: biochemical, Pleurotus ostreatus; details: apparent, air-saturated (0.256 mM O2), 50 mM NaPi pH 6.0, 25°C
T4 construct: gene AAO; 60,903 Da
Excerpt: steady-state kinetics, absorbance of aldehyde formed on PoAAO | The three enzymes oxidized the whole spectrum of alcohols although with different catalytic efficiencies.

[3] = substrate: OCc1cccc(Cl)c1; assay: purified protein, by the assay type; design: steady-state kinetics, spectrophotometric alcohol oxidation to aldehyde, air-saturated 50 mM NaPi pH 6.0, 25 C; details: pH 6.0
Procedure: Steady-state kinetic parameters were measured spectrophotometrically by monitoring the oxidation of the different alcohols to the corresponding aldehydes—Δε285, 16,950 M^−1 cm^−1 for [compound left out]; Δε240, 5,923 M^−1 cm^−1 for 3-chloro-benzyl alcohol; Δε309, 8,332 M^−1 cm^−1 for vanillyl alcohol; Δε307, 7,383 M^−1 cm^−1 for [compound left out]; Δε280, 30,140 M^−1 cm^−1 for 2,4-hexadien-1-ol from ([15]); Δε295, 15,000 M^−1 cm^−1 for 3-chloro-p-mehxoybenzyl alcohol from ([38]); and Δε310, 9,300 M^−1 cm^−1 for [compound left out] from Guillén et al. ([59])—in air-saturated (0.256 mM O2 concentration) 50 mM NaPi, pH 6.0, at 25°C. Steady-state kinetic analyses and statistical fits were performed using the SigmaPlot program. Apparent kinetic parameters in atmospheric oxygen were determined by fitting initial reaction rates (v0) at different alcohol concentrations to the Michaelis-Menten equation (equation 1). (1) v0/e = kcat[A]/Km + [A] The steady-state curves and resulting kinetic parameters for oxidation of different alcohols under atmospheric conditions with O2 as an electron acceptor were compared for PoAAO, BaAAO, and PeAAO (Fig. S4 and Table S1). The three enzymes oxidized the whole spectrum of alcohols although with different catalytic efficiencies.

[4] = substrate: CC=CC=CCO; assay: steady-state kinetics, absorbance of aldehyde formed; type: biochemical, Pleurotus eryngii; details: apparent, air-saturated (0.256 mM O2), 50 mM NaPi pH 6.0, 25°C
Excerpt: (§1) steady-state kinetics, absorbance of aldehyde formed on PeAAO | The three enzymes oxidized the whole spectrum of alcohols although with different catalytic efficiencies.

[5] = substrate: COc1ccc(CO)cc1Cl; assay: as above; type: biochemical, Pleurotus eryngii; details: apparent, air-saturated (0.256 mM O2), 50 mM NaPi pH 6.0, 25°C
Excerpt: as §1

[6] = substrate: CC=CC=CCO; assay: as above; type: biochemical, Bjerkandera adusta; details: apparent, air-saturated (0.256 mM O2), 50 mM NaPi pH 6.0, 25°C
Excerpt: (§2) steady-state kinetics, absorbance of aldehyde formed on BaAAO | The three enzymes oxidized the whole spectrum of alcohols although with different catalytic efficiencies.

[7] = substrate: COc1ccc(CO)cc1Cl; assay: as above; type: biochemical, Bjerkandera adusta; details: apparent, air-saturated (0.256 mM O2), 50 mM NaPi pH 6.0, 25°C
Excerpt: as §2

[8] = substrate: OCc1cccc(Cl)c1; assay: as above; type: biochemical, Bjerkandera adusta; details: apparent, air-saturated (0.256 mM O2), 50 mM NaPi pH 6.0, 25°C
Excerpt: as §2

[9] = substrate: COc1cc(CO)ccc1O; assay: as above; type: biochemical, Bjerkandera adusta; details: apparent, air-saturated (0.256 mM O2), 50 mM NaPi pH 6.0, 25°C
Excerpt: as §2

Work on O=C1C=CC(=O)C=C1 [BQ, p-benzoquinone] yielded a Km (PoAAO [1]) of 33 ± 4 µM, a Km (PeAAO) of 48 ± 6 µM and a Km (BaAAO) of 70 ± 9 µM.

COc1ccc(CO)cc1OC [veratryl alcohol] showed a Km (PoAAO [2]) of 212 ± 11 µM.

In the case of CC=CC=CCO [2,4-hexadien-1-ol], the Km (PoAAO [2]) is reported as 86 ± 4 µM.

In the case of COc1ccc(CO)cc1Cl [3-chloro-p-methoxybenzyl alcohol], the Km (PoAAO [2]) is reported as 9 ± 1 µM.

With COc1ccc(CO)cc1O [isovanillyl alcohol] the Km (PoAAO [2]) was 713 ± 44 µM.

For OCc1cccc(Cl)c1 [3-chlorobenzyl alcohol], the Km (PoAAO [2]) was 80 ± 6 µM.

B1: PeAAO (Pleurotus eryngii) (protein)
chain: ADFDYVVVGAGNAGNVVAARLTEDPDVSVLVLEAGVSDENVLGAEAPLLAPGLVPNSIFDWNYTTTAQAGYNGRSIAYPRGRMLGGSSSVHYMVMMRGSTEDFDRYAAVTGDEGWNWDNIQQFVRKNEMVVPPADNHNTSGEFIPAVHGTNGSVSISLPGFPTPLDDRVLATTQEQSEEFFFNPDMGTGHPLGISWSIASVGNGQRSSSSTAYLRPAQSRPNLSVLINAQVTKLVNSGTTNGLPAFRCVEYAEQEGAPTTTVCAKKEVVLSAGSVGTPILLQLSGIGDENDLSSVGIDTIVNNPSVGRNLSDHLLLPAAFFVNSNQTFDNIFRDSSEFNVDLDQWTNTRTGPLTALIANHLAWLRLPSNSSIFQTFPDPAAGPNSAHWETIFSNQWFHPAIPRPDTGSFMSVTNALISPVARGDIKLATSNPFDKPLINPQYLSTEFDIFTMIQAVKSNLRFLSGQAWADFVIRPFDPRLRDPTDDAAIESYIRDNANTIFHPVGTASMSPRGASWGVVDPDLKVKGVDGLRIVDGSILPFAPNAHTQGPIYLVGKQGADLIKADQ
notes: 61,847 Da
With B1 the Km [3] was 107 ± 2 µM, the kcat [3] was 22 ± 1 s⁻¹ and the kcat/Km [3] was 203 ± 3 mM^-1s^- //. The Km [4] was 94 ± 4 µM, the kcat [4] was 119 ± 1 s⁻¹ and the Km [5] was 9 ± 1 µM. For the same molecule, the kcat [5] was 34 ± 1 s⁻¹.

B2: BaAAO (Bjerkandera adusta) (protein)
chain: MVTFFTDASQLPATVYDFIVVGAGNAGNVVAARLTEDWKTTVLLIEAGISHEGIDSVAVPGLVLDNLPFSPVMWNYTTVPQAALDNRPIPYAKGRVVGGSSSVNFMEYTRSSNTEYDRWANLTGDAGWSWKNMEQYYLKNSRLVPPQDGHNTTGDVDPSVHGYGPVPLSLVGTPNPLDARMRAATQAPGAEFPFQLDMNGGDMIGFGIVQSTILNGERMHSGKAFLEPAMSRPNLHVLIENTVTRLIQTKTTNGLPSFMKVEFARDALSARSVVTATKEVVLSAGSIGTPQILMLSGIGDREELTAIGVNVTVDNPAVGKHLKDHPIMANYFQVNSNETYDDIFRDRDVSNTFLAQWKQNRTGPMVASPSTGLGFFRLPDNDTIFERFADPSPGEGAGHIELILSNQWTPEVQIPPATGSFLTVHAVVVSPASEGTVRLNSTNPFEFPLLDPQLLSSEFDQHTIIHAARLARQFVSSSPWADFVESRTGIIGDTDDDEADLLAAARQATVTIWHPMCTARMAPKGSTDGAIDPDLLVKGVSGLRVIDGAALPAIPATHPMAAIYLLAERGSDLIKQKWKL
notes: 62,610 Da; one cysteine
With B2 the Km [6] was 854 ± 32 µM, the kcat [6] was 42 ± 1 s⁻¹ and the Km [7] was 49 ± 4 µM. For the same molecule, the kcat [7] was 37 ± 1 s⁻¹, the Km [8] was 37 ± 5 µM and the kcat [8] was 13 ± 1 s⁻¹. For the same molecule, the Km [9] was 1960 ± 100 µM and the kcat [9] was 38 ± 1 s⁻¹.
